Several values for one entry are separate records, joined by “and”; a condition that tells them apart may be missing. Equal values may be shown once.
molecular target: HRgpA-6H (Porphyromonas gingivalis) (UniProt P28784); assay: ELISA, FASEBA Fab on coated HRgpA-6H
Chain of UniProt P28784 (P28784 228-991): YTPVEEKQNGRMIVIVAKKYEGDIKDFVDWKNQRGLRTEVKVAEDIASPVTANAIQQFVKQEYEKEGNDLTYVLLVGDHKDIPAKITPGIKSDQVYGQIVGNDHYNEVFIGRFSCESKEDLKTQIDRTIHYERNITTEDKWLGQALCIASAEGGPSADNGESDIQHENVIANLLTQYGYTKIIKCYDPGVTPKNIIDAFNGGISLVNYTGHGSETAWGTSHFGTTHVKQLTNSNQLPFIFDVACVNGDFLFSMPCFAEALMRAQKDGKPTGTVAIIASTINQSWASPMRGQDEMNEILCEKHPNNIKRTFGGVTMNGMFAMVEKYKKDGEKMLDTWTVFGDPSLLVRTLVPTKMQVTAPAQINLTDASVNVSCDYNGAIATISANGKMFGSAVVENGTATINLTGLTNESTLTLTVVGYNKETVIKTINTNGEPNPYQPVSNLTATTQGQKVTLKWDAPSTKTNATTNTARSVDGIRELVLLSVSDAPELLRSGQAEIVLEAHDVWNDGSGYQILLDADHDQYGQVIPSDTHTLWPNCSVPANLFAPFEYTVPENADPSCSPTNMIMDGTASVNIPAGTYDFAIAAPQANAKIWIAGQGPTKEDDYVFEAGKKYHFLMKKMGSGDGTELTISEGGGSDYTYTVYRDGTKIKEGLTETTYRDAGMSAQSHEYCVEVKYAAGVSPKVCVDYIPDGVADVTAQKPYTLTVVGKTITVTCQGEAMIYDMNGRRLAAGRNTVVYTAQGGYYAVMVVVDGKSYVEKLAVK

Binder | OD450nm | Ratio OD(Variant)/OD(WT)
KB001 mouse Fab VL T52S (Fab, V domains shown) VH: EVQLKQSGPGLVAPSQSLSITCTVSGFSLSIYSVHWVRQPPGKGLEWLGMIWGGGSSDYNSALKSRLSISKDNSKSQVFLKMNSLQTDDTAMYYCARNGNFYAMDYWGQGTSVTVSS VL: QIVLTQSPAIMSASLGERVTMTCTASSSVSSSFLHWYQQKPGSSPQLWIYSSSNLASGVPARFSGSGSGTSYSLTISSMEAEDAATYYCHQYHHSPYIYTFGGGTKLEIK | 0.833 | 1.06
KB001 mouse Fab VL S57E (Fab, V domains shown) VH: EVQLKQSGPGLVAPSQSLSITCTVSGFSLSIYSVHWVRQPPGKGLEWLGMIWGGGSSDYNSALKSRLSISKDNSKSQVFLKMNSLQTDDTAMYYCARNGNFYAMDYWGQGTSVTVSS VL: QIVLTQSPAIMSASLGERVTMTCTASSSVSSSFLHWYQQKPGSSPQLWIYSTSNLAEGVPARFSGSGSGTSYSLTISSMEAEDAATYYCHQYHHSPYIYTFGGGTKLEIK | 0.843 | 1.03
KB001 mouse Fab VL L55N (Fab, V domains shown) VH: EVQLKQSGPGLVAPSQSLSITCTVSGFSLSIYSVHWVRQPPGKGLEWLGMIWGGGSSDYNSALKSRLSISKDNSKSQVFLKMNSLQTDDTAMYYCARNGNFYAMDYWGQGTSVTVSS VL: QIVLTQSPAIMSASLGERVTMTCTASSSVSSSFLHWYQQKPGSSPQLWIYSTSNNASGVPARFSGSGSGTSYSLTISSMEAEDAATYYCHQYHHSPYIYTFGGGTKLEIK | 0.816 and 0.815 and 0.777 | 1.04 (2×) and 0.992
KB001 mouse Fab VL N54R (Fab, V domains shown) VH: EVQLKQSGPGLVAPSQSLSITCTVSGFSLSIYSVHWVRQPPGKGLEWLGMIWGGGSSDYNSALKSRLSISKDNSKSQVFLKMNSLQTDDTAMYYCARNGNFYAMDYWGQGTSVTVSS VL: QIVLTQSPAIMSASLGERVTMTCTASSSVSSSFLHWYQQKPGSSPQLWIYSTSRLASGVPARFSGSGSGTSYSLTISSMEAEDAATYYCHQYHHSPYIYTFGGGTKLEIK | 0.876 | 1.12
KB001 mouse Fab VL L55P (Fab, V domains shown) VH: EVQLKQSGPGLVAPSQSLSITCTVSGFSLSIYSVHWVRQPPGKGLEWLGMIWGGGSSDYNSALKSRLSISKDNSKSQVFLKMNSLQTDDTAMYYCARNGNFYAMDYWGQGTSVTVSS VL: QIVLTQSPAIMSASLGERVTMTCTASSSVSSSFLHWYQQKPGSSPQLWIYSTSNPASGVPARFSGSGSGTSYSLTISSMEAEDAATYYCHQYHHSPYIYTFGGGTKLEIK | 0.827 and 0.764 and 0.724 | 1.06 and 0.975 and 0.924
KB001 mouse Fab VL S53K (Fab, V domains shown) VH: EVQLKQSGPGLVAPSQSLSITCTVSGFSLSIYSVHWVRQPPGKGLEWLGMIWGGGSSDYNSALKSRLSISKDNSKSQVFLKMNSLQTDDTAMYYCARNGNFYAMDYWGQGTSVTVSS VL: QIVLTQSPAIMSASLGERVTMTCTASSSVSSSFLHWYQQKPGSSPQLWIYSTKNLASGVPARFSGSGSGTSYSLTISSMEAEDAATYYCHQYHHSPYIYTFGGGTKLEIK | 0.841 | 1.07
KB001 mouse Fab VL S57R (Fab, V domains shown) VH: EVQLKQSGPGLVAPSQSLSITCTVSGFSLSIYSVHWVRQPPGKGLEWLGMIWGGGSSDYNSALKSRLSISKDNSKSQVFLKMNSLQTDDTAMYYCARNGNFYAMDYWGQGTSVTVSS VL: QIVLTQSPAIMSASLGERVTMTCTASSSVSSSFLHWYQQKPGSSPQLWIYSTSNLARGVPARFSGSGSGTSYSLTISSMEAEDAATYYCHQYHHSPYIYTFGGGTKLEIK | 0.845 and 0.849 | 1.04
KB001 mouse Fab VL S53Q (Fab, V domains shown) VH: EVQLKQSGPGLVAPSQSLSITCTVSGFSLSIYSVHWVRQPPGKGLEWLGMIWGGGSSDYNSALKSRLSISKDNSKSQVFLKMNSLQTDDTAMYYCARNGNFYAMDYWGQGTSVTVSS VL: QIVLTQSPAIMSASLGERVTMTCTASSSVSSSFLHWYQQKPGSSPQLWIYSTQNLASGVPARFSGSGSGTSYSLTISSMEAEDAATYYCHQYHHSPYIYTFGGGTKLEIK | 0.835 and 0.751 and 0.726 | 1.06 and 0.954 and 0.922
KB001 mouse Fab VL S95Q (Fab, V domains shown) VH: EVQLKQSGPGLVAPSQSLSITCTVSGFSLSIYSVHWVRQPPGKGLEWLGMIWGGGSSDYNSALKSRLSISKDNSKSQVFLKMNSLQTDDTAMYYCARNGNFYAMDYWGQGTSVTVSS VL: QIVLTQSPAIMSASLGERVTMTCTASSSVSSSFLHWYQQKPGSSPQLWIYSTSNLASGVPARFSGSGSGTSYSLTISSMEAEDAATYYCHQYHHQPYIYTFGGGTKLEIK | 0.931 and 0.936 and 0.927 | 1.01 (2×) and 1.02
KB001 mouse Fab VL S57P (Fab, V domains shown) VH: EVQLKQSGPGLVAPSQSLSITCTVSGFSLSIYSVHWVRQPPGKGLEWLGMIWGGGSSDYNSALKSRLSISKDNSKSQVFLKMNSLQTDDTAMYYCARNGNFYAMDYWGQGTSVTVSS VL: QIVLTQSPAIMSASLGERVTMTCTASSSVSSSFLHWYQQKPGSSPQLWIYSTSNLAPGVPARFSGSGSGTSYSLTISSMEAEDAATYYCHQYHHSPYIYTFGGGTKLEIK | 0.858 | 1.05
KB001 mouse Fab VL S57T (Fab, V domains shown) VH: EVQLKQSGPGLVAPSQSLSITCTVSGFSLSIYSVHWVRQPPGKGLEWLGMIWGGGSSDYNSALKSRLSISKDNSKSQVFLKMNSLQTDDTAMYYCARNGNFYAMDYWGQGTSVTVSS VL: QIVLTQSPAIMSASLGERVTMTCTASSSVSSSFLHWYQQKPGSSPQLWIYSTSNLATGVPARFSGSGSGTSYSLTISSMEAEDAATYYCHQYHHSPYIYTFGGGTKLEIK | 0.843 | 1.03
KB001 mouse Fab VL S53N (Fab, V domains shown) VH: EVQLKQSGPGLVAPSQSLSITCTVSGFSLSIYSVHWVRQPPGKGLEWLGMIWGGGSSDYNSALKSRLSISKDNSKSQVFLKMNSLQTDDTAMYYCARNGNFYAMDYWGQGTSVTVSS VL: QIVLTQSPAIMSASLGERVTMTCTASSSVSSSFLHWYQQKPGSSPQLWIYSTNNLASGVPARFSGSGSGTSYSLTISSMEAEDAATYYCHQYHHSPYIYTFGGGTKLEIK | 0.838 and 0.707 | 1.06 and 0.898
KB001 mouse Fab VL N54S (Fab, V domains shown) VH: EVQLKQSGPGLVAPSQSLSITCTVSGFSLSIYSVHWVRQPPGKGLEWLGMIWGGGSSDYNSALKSRLSISKDNSKSQVFLKMNSLQTDDTAMYYCARNGNFYAMDYWGQGTSVTVSS VL: QIVLTQSPAIMSASLGERVTMTCTASSSVSSSFLHWYQQKPGSSPQLWIYSTSSLASGVPARFSGSGSGTSYSLTISSMEAEDAATYYCHQYHHSPYIYTFGGGTKLEIK | 0.835 and 0.732 and 0.776 | 1.07 and 0.934 and 0.99
KB001 mouse Fab VL S57N (Fab, V domains shown) VH: EVQLKQSGPGLVAPSQSLSITCTVSGFSLSIYSVHWVRQPPGKGLEWLGMIWGGGSSDYNSALKSRLSISKDNSKSQVFLKMNSLQTDDTAMYYCARNGNFYAMDYWGQGTSVTVSS VL: QIVLTQSPAIMSASLGERVTMTCTASSSVSSSFLHWYQQKPGSSPQLWIYSTSNLANGVPARFSGSGSGTSYSLTISSMEAEDAATYYCHQYHHSPYIYTFGGGTKLEIK | 0.857 | 1.05
KB001 mouse Fab VL N54Q (Fab, V domains shown) VH: EVQLKQSGPGLVAPSQSLSITCTVSGFSLSIYSVHWVRQPPGKGLEWLGMIWGGGSSDYNSALKSRLSISKDNSKSQVFLKMNSLQTDDTAMYYCARNGNFYAMDYWGQGTSVTVSS VL: QIVLTQSPAIMSASLGERVTMTCTASSSVSSSFLHWYQQKPGSSPQLWIYSTSQLASGVPARFSGSGSGTSYSLTISSMEAEDAATYYCHQYHHSPYIYTFGGGTKLEIK | 0.868 | 1.11
KB001 mouse Fab VL H90W (Fab, V domains shown) VH: EVQLKQSGPGLVAPSQSLSITCTVSGFSLSIYSVHWVRQPPGKGLEWLGMIWGGGSSDYNSALKSRLSISKDNSKSQVFLKMNSLQTDDTAMYYCARNGNFYAMDYWGQGTSVTVSS VL: QIVLTQSPAIMSASLGERVTMTCTASSSVSSSFLHWYQQKPGSSPQLWIYSTSNLASGVPARFSGSGSGTSYSLTISSMEAEDAATYYCWQYHHSPYIYTFGGGTKLEIK | 0.913 | 1.06
KB001 mouse Fab VL S53H (Fab, V domains shown) VH: EVQLKQSGPGLVAPSQSLSITCTVSGFSLSIYSVHWVRQPPGKGLEWLGMIWGGGSSDYNSALKSRLSISKDNSKSQVFLKMNSLQTDDTAMYYCARNGNFYAMDYWGQGTSVTVSS VL: QIVLTQSPAIMSASLGERVTMTCTASSSVSSSFLHWYQQKPGSSPQLWIYSTHNLASGVPARFSGSGSGTSYSLTISSMEAEDAATYYCHQYHHSPYIYTFGGGTKLEIK | 0.827 and 0.777 | 1.05 and 0.987
KB001 mouse Fab VL S57G (Fab, V domains shown) VH: EVQLKQSGPGLVAPSQSLSITCTVSGFSLSIYSVHWVRQPPGKGLEWLGMIWGGGSSDYNSALKSRLSISKDNSKSQVFLKMNSLQTDDTAMYYCARNGNFYAMDYWGQGTSVTVSS VL: QIVLTQSPAIMSASLGERVTMTCTASSSVSSSFLHWYQQKPGSSPQLWIYSTSNLAGGVPARFSGSGSGTSYSLTISSMEAEDAATYYCHQYHHSPYIYTFGGGTKLEIK | 0.873 and 0.825 | 1.07 and 1.01
KB001 mouse Fab VL Y97E (Fab, V domains shown) VH: EVQLKQSGPGLVAPSQSLSITCTVSGFSLSIYSVHWVRQPPGKGLEWLGMIWGGGSSDYNSALKSRLSISKDNSKSQVFLKMNSLQTDDTAMYYCARNGNFYAMDYWGQGTSVTVSS VL: QIVLTQSPAIMSASLGERVTMTCTASSSVSSSFLHWYQQKPGSSPQLWIYSTSNLASGVPARFSGSGSGTSYSLTISSMEAEDAATYYCHQYHHSPEIYTFGGGTKLEIK | 0.793 | 1
KB001 mouse Fab VL S57Q (Fab, V domains shown) VH: EVQLKQSGPGLVAPSQSLSITCTVSGFSLSIYSVHWVRQPPGKGLEWLGMIWGGGSSDYNSALKSRLSISKDNSKSQVFLKMNSLQTDDTAMYYCARNGNFYAMDYWGQGTSVTVSS VL: QIVLTQSPAIMSASLGERVTMTCTASSSVSSSFLHWYQQKPGSSPQLWIYSTSNLAQGVPARFSGSGSGTSYSLTISSMEAEDAATYYCHQYHHSPYIYTFGGGTKLEIK | 0.858 and 0.838 | 1.05 and 1.03

Reference: patent publication US20230365662A1
